Data reported in patent US11278600B2, “Human alpha-galactosidase variants” (Codexis, Inc., priority 2014, dated 2022).
Numbering of substitutions follows the chain as printed.

B1: 127 (protein)
chain: LDNGLARTPTMGWLHWERFMCNLDCQEEPDSCISEKLFMEMAELMVSEGWKDAGYEYLCIDDCWMAPQRDSEGRLQADPQRFPHGIRQLANYVHSKGLKLGIYADVGNKTCAGFPGSFGYYDIDAQTFADWGVDLLKFDGCYCDSLENLADGYKHMSLALNRTGRSIVYSCEWPLYMWPFQKPNYTEIRQYCNHWRNFADIDDSWKSIKSILDWTSFNQERIVDVAGPGGWNDPDMLVIGNFGLSWNQQVTQMALWAIMAAPLFMSNDLRHISPQAKALLQDKDVIAINQDPLGKQGYQLRQGDNFEVWERPLSGLAWAVAMINRQEIGGPRSYTIAVASLGKGVACNPACFITQLLPVKRKLGFYEWTSRLRSHINPTGTVLLQLENTRQMSKDLLL
modifications: Synthetic Polypeptide sequence of Variant No. 127 of mature Human GLA
B2: 123 (protein)
chain: B1 chain with M20D, Q302K, R390M
modifications: Synthetic Polypeptide sequence of Variant No. 123 of mature Human GLA
B3: 126 (protein)
chain: B1 chain with R390D
modifications: Synthetic Polypeptide sequence of Variant No. 126 of mature Human GLA
B4: 124 (protein)
chain: B1 chain with M253F, R390M
modifications: Synthetic Polypeptide sequence of Variant No. 124 of mature Human GLA
B5: 125 (protein)
chain: B1 chain with M322I, R390M
modifications: Synthetic Polypeptide sequence of Variant No. 125 of mature Human GLA
B6: 1 (protein)
chain: B1 chain with A337S, R390M, K394L, D395K, L396D
modifications: Synthetic Polypeptide sequence of Variant No. 1 of mature Human GLA
B7: 2 (protein)
chain: B1 chain with E43D, R390M, K394L, D395K, L396D
modifications: Synthetic Polypeptide sequence of Variant No. 2 of mature Human GLA
B8: 26 (protein)
chain: LDNGLARTPTMGWLHWERFMCNLDCQEEPDSCISEKLFMEMAELMVSEGWKDAGYEYLCIDDCWMAPQRDSEGRLQADPQRFPHGIRQLANYVHSKGLKLGIYADVGNKTCAGFPGSFGYYDIDAQTFADWGVDLLKFDGCYCDSLENLADGYKHMSLALNRTGRSIVYSCEWPLYMWSFQKPNYTEIRQYCNHWRNFADIDDSWKSIKSILDWTSFNQERIVDVAGPGGWNDPDMLVIGNFGLSWNQQVTQMALWAIMAAPLFMSNDLRHISPQAKALLQDKDVIAINQDPLGKQGYQLRQGDNFEVWERPLSGLAWAVAMINRQEIGGPRSYTIAVASLGKGVACNPACFITQLLPVKRKLGFYEWTSRLKSHINPTGTVLLQLENTMQMSLKDLLL
modifications: Synthetic Polypeptide sequence of Variant No. 26 of mature Human GLA
B9: 30 (protein)
chain: B8 chain with S179P, Q302K, K373R, I376V
modifications: Synthetic Polypeptide sequence of Variant No. 30 of mature Human GLA
B10: 29 (protein)
chain: B8 chain with S179P, Q299R, Q302K, I376V
modifications: Synthetic Polypeptide sequence of Variant No. 29 of mature Human GLA
B11: 32 (protein)
chain: B8 chain with S179P, I376V
modifications: Synthetic Polypeptide sequence of Variant No. 32 of mature Human GLA
B12: 31 (protein)
chain: B8 chain with S179P
modifications: Synthetic Polypeptide sequence of Variant No. 31 of mature Human GLA
B13: 27 (protein)
chain: B8 chain with S179P, Q299R, M322V
modifications: Synthetic Polypeptide sequence of Variant No. 27 of mature Human GLA
B14: 28 (protein)
chain: B8 chain with S179P, Q299R, Q302K
modifications: Synthetic Polypeptide sequence of Variant No. 28 of mature Human GLA

experiment: HTP-analysis of supernatants pretreated with acid (MUGal hydrolysis); type: biochemical; conditions: challenge at pH 4.2; activity of the variant/activity of WT GLA (SEQ ID NO: 5); yeast supernatant
Procedure, shortened: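 Yeast INVSc1 supernatant, GLA variants; acid challenge: McIlvaine pH 3.3-4.3, 37° C., 1-3 h. Assay: MUGal in McIlvaine pH 4.8 plus citrate pH 4.3, 37° C., 30-180 min, Na2CO3 stop, Ex 355/Em 448 nm.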

Molecule	Relative Activity of GLA Variants After Challenge at pH 4.2
B1	++ (++ = >1.5 to 2.5 relative activity over WT GLA (SEQ ID NO: 5))
B2	+ (+ = 0.5 to 1.5 relative activity over WT GLA (SEQ ID NO: 5))
B3	+++ (+++ = >2.5 relative activity over WT GLA (SEQ ID NO: 5))
B4	++ (++ = >1.5 to 2.5 relative activity over WT GLA (SEQ ID NO: 5))
B5	+ (+ = 0.5 to 1.5 relative activity over WT GLA (SEQ ID NO: 5))

same assay, conditions: challenge at pH 4.3; activity of the variant/activity of WT GLA (SEQ ID NO: 5); yeast supernatant

Molecule	Relative Activity of GLA Variants After Challenge at pH 4.3
B6	+ (+ = 0.5 to 1.5 relative activity over WT GLA (SEQ ID NO: 5))
B7	+ (+ = 0.5 to 1.5 relative activity over WT GLA (SEQ ID NO: 5))
B8	+ (+ = 0.5 to 1.5 relative activity over WT GLA (SEQ ID NO: 5))
B9	++ (++ = >1.5 to 2.5 relative activity over WT GLA (SEQ ID NO: 5))
B10	+ (+ = 0.5 to 1.5 relative activity over WT GLA (SEQ ID NO: 5))
B11	++ (++ = >1.5 to 2.5 relative activity over WT GLA (SEQ ID NO: 5))
B12	+ (+ = 0.5 to 1.5 relative activity over WT GLA (SEQ ID NO: 5))
B13	+ (+ = 0.5 to 1.5 relative activity over WT GLA (SEQ ID NO: 5))
B14	+ (+ = 0.5 to 1.5 relative activity over WT GLA (SEQ ID NO: 5))

experiment: HTP-analysis of yeast culture supernatants, no challenge (MUGal hydrolysis); type: biochemical; conditions: activity of the variant/activity of WT GLA (SEQ ID NO: 5), yeast supernatant
Procedure, shortened: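 GLA variants were expressed in INVSc1 yeast grown in SD-Ura broth with glucose at 30° C., and culture supernatants were collected after 66-84 h. Supernatant was mixed with McIlvaine buffer pH 4.8 and MUGal (2 mM stock) in 50 mM citrate, 200 mM KCl, pH 4.6, incubated at 37° C. for 30-180 minutes, then quenched with sodium carbonate.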

Molecule	Relative Activity of GLA Variants After No Challenge (NC)
B6	+ (+ = 0.5 to 1.5 relative activity over WT GLA (SEQ ID NO: 5))
B7	+ (+ = 0.5 to 1.5 relative activity over WT GLA (SEQ ID NO: 5))
B1	++ (++ = >1.5 to 2.5 relative activity over WT GLA (SEQ ID NO: 5))
B2	− (− = <0.5 relative activity to WT GLA (SEQ ID NO: 5))
B3	+++ (+++ = >2.5 relative activity over WT GLA (SEQ ID NO: 5))
B4	++ (++ = >1.5 to 2.5 relative activity over WT GLA (SEQ ID NO: 5))
B5	+ (+ = 0.5 to 1.5 relative activity over WT GLA (SEQ ID NO: 5))
B8	+ (+ = 0.5 to 1.5 relative activity over WT GLA (SEQ ID NO: 5))
B9	+ (+ = 0.5 to 1.5 relative activity over WT GLA (SEQ ID NO: 5))
B10	+ (+ = 0.5 to 1.5 relative activity over WT GLA (SEQ ID NO: 5))
B11	+ (+ = 0.5 to 1.5 relative activity over WT GLA (SEQ ID NO: 5))
B12	+ (+ = 0.5 to 1.5 relative activity over WT GLA (SEQ ID NO: 5))
B13	+ (+ = 0.5 to 1.5 relative activity over WT GLA (SEQ ID NO: 5))
B14	+ (+ = 0.5 to 1.5 relative activity over WT GLA (SEQ ID NO: 5))

experiment: HTP-analysis of supernatants pretreated with base (MUGal hydrolysis); type: biochemical; conditions: challenge at pH 7.0; activity of the variant/activity of WT GLA (SEQ ID NO: 5); yeast supernatant
Procedure, shortened: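 Supernatants from INVSc1 yeast expressing GLA variants (SD-Ura, 66-84 h, 30° C) were mixed with McIlvaine buffer pH 7.0-8.2 or 200 mM sodium bicarbonate pH 9.1-9.7 and held 1-18 h at 37° C. Residual activity was then measured on MUGal at pH 4.8/4.3, 37° C, 30-180 min, by fluorescence (Ex 355/Em 448 nm).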

Molecule	Relative Activity of GLA Variants After Challenge at pH 7.0
B6	+ (+ = 0.5 to 1.5 relative activity over WT GLA (SEQ ID NO: 5))
B7	+ (+ = 0.5 to 1.5 relative activity over WT GLA (SEQ ID NO: 5))
B8	+ (+ = 0.5 to 1.5 relative activity over WT GLA (SEQ ID NO: 5))
B9	+ (+ = 0.5 to 1.5 relative activity over WT GLA (SEQ ID NO: 5))
B10	+ (+ = 0.5 to 1.5 relative activity over WT GLA (SEQ ID NO: 5))
B11	+ (+ = 0.5 to 1.5 relative activity over WT GLA (SEQ ID NO: 5))
B12	+ (+ = 0.5 to 1.5 relative activity over WT GLA (SEQ ID NO: 5))
B13	+ (+ = 0.5 to 1.5 relative activity over WT GLA (SEQ ID NO: 5))
B14	+ (+ = 0.5 to 1.5 relative activity over WT GLA (SEQ ID NO: 5))

same assay, conditions: challenge at pH 7.1; activity of the variant/activity of WT GLA (SEQ ID NO: 5); yeast supernatant

Molecule	Relative Activity of GLA Variants After Challenge at pH 7.1
B1	++ (++ = >1.5 to 2.5 relative activity over WT GLA (SEQ ID NO: 5))
B2	− (− = <0.5 relative activity to WT GLA (SEQ ID NO: 5))
B3	+++ (+++ = >2.5 relative activity over WT GLA (SEQ ID NO: 5))
B4	+ (+ = 0.5 to 1.5 relative activity over WT GLA (SEQ ID NO: 5))
B5	+ (+ = 0.5 to 1.5 relative activity over WT GLA (SEQ ID NO: 5))
